B1: H2aM7788N (antibody, mouse IgG2a, V domains shown)
VH: EVQLVESGGGLVQPGGSLRLSCGASGFTFRNYDMHWVRQITGKGLEWVSAIGSAGDTYYPDSVKGRFTISRENAKNSLYLQMNSLRVGDTAVYYCTRDIHCSSTRCYGMDVWGQGTTVTVSS
VL: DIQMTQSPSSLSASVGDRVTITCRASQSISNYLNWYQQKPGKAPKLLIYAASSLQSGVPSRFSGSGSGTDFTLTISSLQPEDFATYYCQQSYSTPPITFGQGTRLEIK
notes: Human variable regions, mouse IgG2a Fc; also called H2M7788N
B2: H1M7789N (antibody, mouse IgG1, V domains shown)
VH: EVQLLESGGGLVQPGGSLRLSCSASGFTFSSYTMNWVRQAPGKGLEWVSGISDTGGNTYYTDSVKGRFTVSRDNSKNTLSLQMNSLRAEDTAVYYCAKDQGGSYPYYFHYWGQGSLVTVSS
VL: DIQMTQSPSSLSASVGDRVTITCRASQSISSYLIWYQQKPGTAPKFLIYAASSLQSGVPSRFSGCGSGTDFTLTISSLQPEDFATYYCQQSYSTPPITFGQGTRLEIK
notes: Human variable regions, mouse IgG1 Fc
B3: H2aM7791N (antibody, mouse IgG2a, V domains shown)
VH: QMQLQQWGAGLLKPSETLSLTCVVYGGSLNGYYWSWIRQSPGKGLEWIGEIDHSGSTNYNPSLKNRVTMSVDTSKIQFSLKLTSVTVADTAVYYCAREGLLPFDYWGQGTLVTVSS
VL: EIVLTQSPGTLSLSPGERVTLSCRASQSVYSNYLAWYQQNPGQAPRLLIYAASNRATGIPDRFSGSGSGTDFTLTISRLEPEDFAVYYCHQYATSPWTFGQGTKVEIK
notes: Human variable regions, mouse IgG2a Fc; also called H2M7791N
B4: H2aM7794N (antibody, V domains shown)
VH: QLQLQESGPDLVKPSDTLSLTCTVSDDSISSTTYYWAWIRQPPGKGLEWIGSMSYNGNNYYNPSLKSRVAISAGTSQKQFSLKLTSVTAADTAVYHCARHLGYNGNWYPFDFWGQGILVTVSS
VL: not shown
notes: Human variable regions, mouse IgG2a Fc; also called H2M7794N
B5: H2aM7795N (antibody, mouse IgG2a, V domains shown)
VH: EVQVVESGGGLVEPGRSLRLSCKASGFTFDDYAMHWVRQTPGKALEWVSGINWSGNNIGYADSVKGRFTISKDDAKNSLYLQMNSLRPEDTALYYCTKDISITGTLDAFDVWGQGTMVTVSS
VL: DIQMTQSPISVSASVGDRVTITCRASQGISNWLAWYQQKPGIAPKLLIYSASSLQSGVPSRFRGSGSGTDFTLTIGSLQPEDFATYYCQQAHSFPLTFGGGTKVEIK
notes: Human variable regions, mouse IgG2a Fc; also called H2M7795N
B6: H2aM7798N (antibody, mouse IgG2a, V domains shown)
VH: EVQLLESGGVLVQPGGSLRLSCAASGFTFSNFGMTWVRQAPGKGLEWVSGISGGGRDTYFADSVKGRFTISRDNSKNTLYLQMNSLKGEDTAVYYCVKWGNIYFDYWGQGTLVTVSS
VL: DIQMTQSPSSLSASVGDSITITCRASLSINTFLNWYQQKPGKAPNLLIYAASSLHGGVPSRFSGSGSGTDFTLTIRTLQPEDFATYYCQQSSNTPFTFGPGTVVDFR
notes: Human variable regions, mouse IgG2a Fc; also called H2M7798N
B7: H1M7799N (antibody, mouse IgG1, V domains shown)
VH: EVQLVESGGGLVQPGGSLRLSCAASGFTVSNNYMSWVRQAPGKGLEWVSVIYSGGFTYYTDSVKGRFTISRHNSKNTLYLQMNSLRAEDTAVYYCARYYYDTSDYWTFFDYWGQGTLVTVSS
VL: EIVMTQSPATLSVSPGERATLSCRASQSVSSNLAWYQQKPGQAPRLLIYGASTRATGIPARFSGSGSGTEFTLTISSLQSGDFAVYYCQQYNNWPLTFGGGTKVEIN
notes: as for B2
B8: H1M7800N (antibody, mouse IgG1, V domains shown)
VH: B7 VH
VL: B7 VL
notes: as for B2
B9: H4H9019P (antibody, human IgG4, V domains shown)
VH: EVQLVESGGGVVRPGGSLRLSCAASGFTFDDYGMSWVRQVPGKGLEWVSGISWNDGKTVYAESVKGRFIISRDNAKNSLYLEMNSLRAEDTALYYCARDWQYLIERYFDYWGQGTLVTVSS
VL: not shown
notes: Fully human; H4H prefix (human IgG4 Fc)

Each binder was assayed against T1, recombinant human PD-1 expressed with a C-terminal myc-myc-hexahistidine tag (human) (assay: SPR, mAb captured, 37C;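 also: rate constants from fitting sensorgrams to a 1:1 binding model, KD derived as kd divided by ka and half-life as ln2/(60·kd)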).
T1 construct: monomeric; also called hPD-1-MMH; human PD-1-MMH

Row | Binder | Kd [nM] | koff [s⁻¹] | kon [M⁻¹ s⁻¹] | t½ [min]
1 | B1 | 51.9 | 0.00149 | 28800 | 7.7
2 | B2 | 6.52 | 0.000295 | 45300 | 39
3 | B3 | 53.5 | 0.00224 | 41800 | 5.2
4 | B4 | 66.1 | 0.00792 | 120000 | 1.5
5 | B5 | 67.8 | 0.00458 | 67500 | 2.5
6 | B6 | 3.79 | 0.000656 | 173000 | 18
7 | B7 | 536 | 0.0425 | 79400 | 0.3
8 | B8 | 510 | 0.0399 | 78300 | 0.3
9 | B9 | 453 | – | – | 2.1

Each binder was assayed against T2, human PD-1 dimer (human PD-1-mFc or human PD-1-hFc) (human, UniProt Q15116 25-170) (assay: SPR, mAb captured, 25C;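 also: surface plasmon resonance on Biacore, PD-1 flowed over captured anti-PD-1 antibodies, rate constants from a 1:1 binding model fit, KD taken as kd/ka and t½ as ln2/(60·kd)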).
T2 construct: also called hPD-1-mFc; hPD1-hFc
T2 sequence (Q15116 25-170 C93S): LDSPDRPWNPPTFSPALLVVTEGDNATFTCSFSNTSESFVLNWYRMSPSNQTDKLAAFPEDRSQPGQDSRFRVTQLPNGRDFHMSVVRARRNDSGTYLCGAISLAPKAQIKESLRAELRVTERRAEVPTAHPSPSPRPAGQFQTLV

Row | Binder | Kd [nM] | koff [s⁻¹] | kon [M⁻¹ s⁻¹] | t½ [min]
10 | B1 | 0.315 | 2.82e-05 | 89400 | 410
11 | B2 | 1.1 | 4.31e-05 | 39100 | 268
12 | B3 | 2.49 | 0.000101 | 40500 | 114
13 | B4 | 0.593 | 0.000106 | 179000 | 109
14 | B5 | 0.227 | 3.14e-05 | 138000 | 368
15 | B6 | 0.0655 | 2.29e-05 | 350000 | 505
16 | B7 | 0.36 | 8.55e-05 | 238000 | 135
17 | B8 | 0.509 | 7.72e-05 | 152000 | 150
18 | B9 | 1.97 | – | – | 134

Each binder was assayed against T2, human PD-1 dimer (human PD-1-mFc or …) (assay: SPR, mAb captured, 37C).

Row | Binder | Kd [nM] | koff [s⁻¹] | kon [M⁻¹ s⁻¹] | t½ [min]
19 | B1 | 0.163 | 2.13e-05 | 131000 | 542
20 | B2 | ≤ 0.0917 | ≤ 1e-05 | 109000 | ≥ 1160
21 | B3 | 3.59 | 0.000179 | 49800 | 65
22 | B4 | 0.452 | 0.000211 | 468000 | 55
23 | B5 | 0.371 | 6.13e-05 | 165000 | 188
24 | B6 | 0.028 | 1.4e-05 | 490000 | 825
25 | B7 | 0.411 | 0.000181 | 441000 | 64
26 | B8 | 0.45 | 0.000181 | 400000 | 64
27 | B9 | 2.71 | – | – | 59

Biological target: T3, recombinant cynomolgus monkey PD-1 expressed with a C-terminal myc-myc-hexahistidine tag (cynomolgus monkey (Macaca fascicularis))
T3 construct: monomeric; also called MfPD-1-MMH
T3 chain: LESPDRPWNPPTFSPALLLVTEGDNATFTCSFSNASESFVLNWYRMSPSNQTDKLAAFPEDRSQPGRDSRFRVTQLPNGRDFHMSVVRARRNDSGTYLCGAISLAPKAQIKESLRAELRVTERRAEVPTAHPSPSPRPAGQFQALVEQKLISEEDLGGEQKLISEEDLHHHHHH
Experiment: SPR, mAb captured, 25C;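 also: rates from fitting Biacore data for PD-1 binding to anti-PD-1 antibodies with a 1:1 model, KD computed as koff/kon and t½ as ln2/(60·koff)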

Row | Binder | Kd [nM] | koff [s⁻¹] | kon [M⁻¹ s⁻¹] | t½ [min]
28 | B1 | 76.6 | 0.000662 | 8630 | 17
29 | B2 | 7.89 | 0.000123 | 15500 | 94
30 | B3 | 34.4 | 0.000553 | 16100 | 21
31 | B4 | 166 | 0.00599 | 36000 | 1.9
32 | B5 | 20.1 | 0.000889 | 44400 | 13
33 | B6 | 4.5 | 0.000393 | 87200 | 29
34 | B7 | 224 | 0.013 | 57800 | 0.9
35 | B8 | 176 | 0.0104 | 58900 | 1.1
36 | B9 | 42.9 | – | – | –

Biological target: T3, recombinant cynomolgus monkey PD-1 …
Experiment: SPR, mAb captured, 37C

Row | Binder | Kd [nM] | koff [s⁻¹] | kon [M⁻¹ s⁻¹] | t½ [min]
37 | B1 | 174 | 0.00328 | 18800 | 3.5
38 | B2 | 8.5 | 0.000408 | 47900 | 28
39 | B3 | 50.5 | 0.00191 | 37900 | 6
40 | B4 | 302 | 0.0201 | 66600 | 0.6
41 | B5 | 60.2 | 0.00389 | 64700 | 3
42 | B6 | 7 | 0.000993 | 142000 | 12
43 | B7 | 530 | 0.0467 | 88000 | 0.2
44 | B8 | 527 | 0.0443 | 84000 | 0.3
45 | B9 | 356 | – | – | 1.5

Reference: patent US20150203579A1 (Regeneron, published 2015)
